In the supplement of paper PMC5998384:

Key:
HeLa Kyoto [1] = test: thermal stability score vs G1/S (z-score of summed log2 fold changes over temperatures); higher = more thermally stable than in G1/S
HeLa Kyoto [2] = test: melting temperature (median over replicates), in situ; higher = more thermally stable
HeLa Kyoto [3] = test: solubility change mitosis vs G1/S (difference of NP-40 vs SDS log2 ratios) (log2 ratio difference); higher = more soluble in mitosis
HeLa Kyoto [4] = test: solubility in G1/S (NP-40 vs SDS abundance) (log2 ratio); higher = more soluble; conditions: cell cycle stage: G1/S
[5] = cell cycle stage: early G1 (4.5 h after nocodazole release)
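Wherever melting temperature (median over replicates), in situ is given: HeLa Kyoto cells synchronized by double thymidine or nocodazole block, proteins quantified by TMT10plex mass spectrometry, three independent biological replicates.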
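Wherever solubility change mitosis vs G1/S (difference of NP-40 vs SDS log2 ratios) is given: synchronized HeLa Kyoto cells (double thymidine block for G1/S, nocodazole release for mitosis), protein amounts in NP-40 versus SDS lysates quantified by mass spectrometry, three biological replicates.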
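Wherever solubility in G1/S (NP-40 vs SDS abundance) is given: HeLa Kyoto cells arrested at G1/S by double thymidine block, proteins quantified by TMT10plex mass spectrometry in mild NP-40 versus SDS extracts, three biological replicates.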
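Wherever thermal stability score vs G1/S (z-score of summed log2 fold changes over temperatures) is given: synchronized HeLa Kyoto cells, proteins quantified by TMT10plex mass spectrometry, three biological replicates, mitosis taken 0.5 h after nocodazole release, G1/S directly after double thymidine block.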

Sequence | thermal stability score (HeLa Kyoto [1]; [5]) | thermal stability score (HeLa Kyoto [1]; cell cycle stage: mitosis) | melting temperature (HeLa Kyoto [2]; cell cycle stage: G1/S) [°C] | melting temperature (HeLa Kyoto [2]; cell cycle stage: mitosis) [°C] | solubility change mitosis (log2) (HeLa Kyoto [3]) | solubility in G1/S (log2) (HeLa Kyoto [4])
MQRVSGLLSWTLSRVLWLSGLSEPGAARQPRIMEEKALEVYDLIRTIRDPEKPNTLEELEVVSESCVEVQEINEEEYLVIIRFTPTVPHCSLATLIGLCLRVKLQRCLPFKHKLEIYISEGTHSTEEDINKQINDKERVAAAMENPNLREIVEQCVLEPD [FAM96A] | 0.017 | -0.983 | 54.9 | 55.3 | 0.184 | 0.0285
MQSNKTFNLEKQNHTPRKHHQHHHQQQHHQQQQQQPPPPPIPANGQQASSQNEGLTIDLKNFRKPGEKTFTQRSRLFVGNLPPDITEEEMRKLFEKYGKAGEVFIHKDKGFGFIRLETRTLAEIAKVELDNMPLRGKQLRVRFACHSASLTVRNLPQYVSNELLEEAFSVFGQVERAVVIVDDRGRPSGKGIVEFSGKPAARKALDRCSEGSFLLTTFPRPVTVEPMDQLDDEEGLPEKLVIKNQQFHKEREQPPRFAQPGSFEYEYAMRWKALIEMEKQQQDQVDRNIKEAREKLEMEMEAARHEHQVMLMRQDLMRRQEELRRMEELHNQEVQKRKQLELRQEEERRRREEEMRRQQEEMMRRQQEGFKGTFPDAREQEIRMGQMAMGGAMGINNRGAMPPAPVPAGTPAPPGPATMMPDGTLGLTPPTTERFGQAATMEGIGAIGGTPPAFNRAAPGAEFAPNKRRRY [NONO] | 4.71 | 11.4 | 46.6 | 47.8 | 0.501 | -0.113
MQTFLKGKRVGYWLSEKKIKKLNFQAFAELCRKRGMEVVQLNLSRPIEEQGPLDVIIHKLTDVILEADQNDSQSLELVHRFQEYIDAHPETIVLDPLPAIRTLLDRSKSYELIRKIEAYMEDDRICSPPFMELTSLCGDDTMRLLEKNGLTFPFICKTRVAHGTNSHEMAIVFNQEGLNAIQPPCVVQNFINHNAVLYKVFVVGESYTVVQRPSLKNFSAGTSDRESIFFNSHNVSKPESSSVLTELDKIEGVFERPSDEVIRELSRALRQALGVSLFGIDIIINNQTGQHAVIDINAFPGYEGVSEFFTDLLNHIATVLQGQSTAMAATGDVALLRHSKLLAEPAGGLVGERTCSASPGCCGSMMGQDAPWKAEADAGGTAKLPHQRLGCNAGVSPSFQQHCVASLATKASSQ [ITPK1] | 0.291 | -1.14 | 51.9 | 51.3 | -0.011 | 0.0668
MRALRAGLTLASGAGLGAVVEGWRRRREDARAAPGLLGRLPVLPVAAAAELPPVPGGPRGPGELAKYGLPGLAQLKSRESYVLCYDPRTRGALWVVEQLRPERLRGDGDRRECDFREDDSVHAYHRATNADYRGSGFDRGHLAAAANHRWSQKAMDDTFYLSNVAPQVPHLNQNAWNNLEKYSRSLTRSYQNVYVCTGPLFLPRTEADGKSYVKYQVIGKNHVAVPTHFFKVLILEAAGGQIELRTYVMPNAPVDEAIPLERFLVPIESIERASGLLFVPNILARAGSLKAITAGSK [ENDOG] | 1.54 | 0.994 | 51.8 | – | 0.0884 | 0.34
MRDRTHELRQGDDSSDEEDKERVALVVHPGTARLGSPDEEFFHKVRTIRQTIVKLGNKVQELEKQQVTILATPLPEESMKQELQNLRDEIKQLGREIRLQLKAIEPQKEEADENYNSVNTRMRKTQHGVLSQQFVELINKCNSMQSEYREKNVERIRRQLKITNAGMVSDEELEQMLDSGQSEVFVSNILKDTQVTRQALNEISARHSEIQQLERSIRELHDIFTFLATEVEMQGEMINRIEKNILSSADYVERGQEHVKTALENQKKARKKKVLIAICVSITVVLLAVIIGVTVVG [STX4] | 0.652 | 0.313 | 51.2 | 50.5 | 0.0104 | 0.326
MRECISIHVGQAGVQIGNACWELYCLEHGIQPDGQMPSDKTIGGGDDSFNTFFSETGAGKHVPRAVFVDLEPTVIDEVRTGTYRQLFHPEQLITGKEDAANNYARGHYTIGKEIIDLVLDRIRKLADQCTGLQGFLVFHSFGGGTGSGFTSLLMERLSVDYGKKSKLEFSIYPAPQVSTAVVEPYNSILTTHTTLEHSDCAFMVDNEAIYDICRRNLDIERPTYTNLNRLISQIVSSITASLRFDGALNVDLTEFQTNLVPYPRIHFPLATYAPVISAEKAYHEQLTVAEITNACFEPANQMVKCDPRHGKYMACCLLYRGDVVPKDVNAAIATIKTKRTIQFVDWCPTGFKVGINYQPPTVVPGGDLAKVQRAVCMLSNTTAVAEAWARLDHKFDLMYAKRAFVHWYVGEGMEEGEFSEAREDMAALEKDYEEVGADSADGEDEGEEY [TUBA1C] | 0.287 | -2.74 | 55.2 | 54.6 | -0.2 | 0.171
MRFRIYKRKVLILTLVVAACGFVLWSSNGRQRKNEALAPPLLDAEPARGAGGRGGDHPSVAVGIRRVSNVSAASLVPAVPQPEADNLTLRYRSLVYQLNFDQTLRNVDKAGTWAPRELVLVVQVHNRPEYLRLLLDSLRKAQGIDNVLVIFSHDFWSTEINQLIAGVNFCPVLQVFFPFSIQLYPNEFPGSDPRDCPRDLPKNAALKLGCINAEYPDSFGHYREAKFSQTKHHWWWKLHFVWERVKILRDYAGLILFLEEDHYLAPDFYHVFKKMWKLKQQECPECDVLSLGTYSASRSFYGMADKVDVKTWKSTEHNMGLALTRNAYQKLIECTDTFCTYDDYNWDWTLQYLTVSCLPKFWKVLVPQIPRIFHAGDCGMHHKKTCRPSTQSAQIESLLNNNKQYMFPETLTISEKFTVVAISPPRKNGGWGDIRDHELCKSYRRLQ [MGAT2] | -0.501 | -0.689 | 53.8 | 53.2 | -0.141 | -0.0662
MRGAGAILRPAARGARDLNPRRDISSWLAQWFPRTPARSVVALKTPIKVELVAGKTYRWCVCGRSKKQPFCDGSHFFQRTGLSPLKFKAQETRMVALCTCKATQRPPYCDGTHRSERVQKAEVGSPL [CISD3] | -0.749 | -0.997 | 50.8 | – | 0.0825 | -0.205
MRGPEPGPQPTMEGDVLDTLEALGYKGPLLEEQALTKAAEGGLSSPEFSELCIWLGSQIKSLCNLEESITSAGRDDLESFQLEISGFLKEMACPYSVLISGDIKDRLKKKEDCLKLLLFLSTELQASQILQNKKHKNSQLDKNSEVYQEVQAMFDTLGIPKSTTSDIPHMLNQVESKVKDILSKVQKNHVGKPLLKMDLNSEQAEQLERINDALSCEYECRRRMLMKRLDVTVQSFGWSDRAKVKTDDIARIYQPKRYALSPKTTITMAHLLAAREDLSKIIRTSSGTSREKTACAINKVLMGRVPDRGGRPNEIEPPPPEMPPWQKRQEGGGGRGGWGGGGGGGGRGGGGGGGGRGGWGGGGGGWGGGGGGGGGWGGGGGGGRGGFQGRGDYGGRGGYGGRGGYGGRGYGDPYGGGGGGGGGGGGGGGYRRY [FAM98B] | -0.356 | 0.627 | 50.3 | 51.5 | 0.0481 | 0.558
MRKFAYCKVVLATSLIWVLLDMFLLLYFSECNKCDEKKERGLPAGDVLEPVQKPHEGPGEMGKPVVIPKEDQEKMKEMFKINQFNLMASEMIALNRSLPDVRLEGCKTKVYPDNLPTTSVVIVFHNEAWSTLLRTVHSVINRSPRHMIEEIVLVDDASERDFLKRPLESYVKKLKVPVHVIRMEQRSGLIRARLKGAAVSKGQVITFLDAHCECTVGWLEPLLARIKHDRRTVVCPIIDVISDDTFEYMAGSDMTYGGFNWKLNFRWYPVPQREMDRRKGDRTLPVRTPTMAGGLFSIDRDYFQEIGTYDAGMDIWGGENLEISFRIWQCGGTLEIVTCSHVGHVFRKATPYTFPGGTGQIINKNNRRLAEVWMDEFKNFFYIISPGVTKVDYGDISSRVGLRHKLQCKPFSWYLENIYPDSQIPRHYFSLGEIRNVETNQCLDNMARKENEKVGIFNCHGMGGNQVFSYTANKEIRTDDLCLDVSKLNGPVTMLKCHHLKGNQLWEYDPVKLTLQHVNSNQCLDKATEEDSQVPSIRDCNGSRSQQWLLRNVTLPEIF [GALNT1] | 3.31 | 5 | 53.1 | 52 | -0.0904 | -0.204
MRKMLAAVSRVLSGASQKPASRVLVASRNFANDATFEIKKCDLHRLEEGPPVTTVLTREDGLKYYRMMQTVRRMELKADQLYKQKIIRGFCHLCDGQEACCVGLEAGINPTDHLITAYRAHGFTFTRGLSVREILAELTGRKGGCAKGKGGSMHMYAKNFYGGNGIVGAQVPLGAGIALACKYNGKDEVCLTLYGDGAANQGQIFEAYNMAALWKLPCIFICENNRYGMGTSVERAAASTDYYKRGDFIPGLRVDGMDILCVREATRFAAAYCRSGKGPILMELQTYRYHGHSMSDPGVSYRTREEIQEVRSKSDPIMLLKDRMVNSNLASVEELKEIDVEVRKEIEDAAQFATADPEPPLEELGYHIYSSDPPFEVRGANQWIKFKSVS [PDHA1] | -1.47 | -2.37 | 52.1 | 51.5 | -0.122 | 0.149
MRLHLLLLLALCGAGTTAAELSYSLRGNWSICNGNGSLELPGAVPGCVHSALFQQGLIQDSYYRFNDLNYRWVSLDNWTYSKEFKIPFEISKWQKVNLILEGVDTVSKILFNEVTIGETDNMFNRYSFDITNVVRDVNSIELRFQSAVLYAAQQSKAHTRYQVPPDCPPLVQKGECHVNFVRKEQCSFSWDWGPSFPTQGIWKDVRIEAYNICHLNYFTFSPIYDKSAQEWNLEIESTFDVVSSKPVGGQVIVAIPKLQTQQTYSIELQPGKRIVELFVNISKNITVETWWPHGHGNQTGYNMTVLFELDGGLNIEKSAKVYFRTVELIEEPIKGSPGLSFYFKINGFPIFLKGSNWIPADSFQDRVTSELLRLLLQSVVDANMNTLRVWGGGIYEQDEFYELCDELGIMVWQDFMFACALYPTDQGFLDSVTAEVAYQIKRLKSHPSIIIWSGNNENEEALMMNWYHISFTDRPIYIKDYVTLYVKNIRELVLAGDKSRPFITSSPTNGAETVAEAWVSQNPNSNYFGDVHFYDYISDCWNWKVFPKARFASEYGYQSWPSFSTLEKVSSTEDWSFNSKFSLHRQHHEGGNKQMLYQAGLHFKLPQSTDPLRTFKDTIYLTQVMQAQCVKTETEFYRRSRSEIVDQQGHTMGALYWQLNDIWQAPSWASLEYGGKWKMLHYFAQNFFAPLLPVGFENENTFYIYGVSDLHSDYSMTLSVRVHTWSSLEPVCSRVTERFVMKGGEAVCLYEEPVSELLRRCGNCTRESCVVSFYLSADHELLSPTNYHFLSSPKEAVGLCKAQITAIISQQGDIFVFDLETSAVAPFVWLDVGSIPGRFSDNGFLMTEKTRTILFYPWEPTSKNELEQSFHVTSLTDIY [MANBA] | -1.93 | -0.28 | 55.6 | 56 | -0.0887 | -0.0999
MRLKIGFILRSLLVVGSFLGLVVLWSSLTPRPDDPSPLSRMREDRDVNDPMPNRGGNGLAPGEDRFKPVVPWPHVEGVEVDLESIRRINKAKNEQEHHAGGDSQKDIMQRQYLTFKPQTFTYHDPVLRPGILGNFEPKEPEPPGVVGGPGEKAKPLVLGPEFKQAIQASIKEFGFNMVASDMISLDRSVNDLRQEECKYWHYDENLLTSSVVIVFHNEGWSTLMRTVHSVIKRTPRKYLAEIVLIDDFSNKEHLKEKLDEYIKLWNGLVKVFRNERREGLIQARSIGAQKAKLGQVLIYLDAHCEVAVNWYAPLVAPISKDRTICTVPLIDVINGNTYEIIPQGGGDEDGYARGAWDWSMLWKRVPLTPQEKRLRKTKTEPYRSPAMAGGLFAIEREFFFELGLYDPGLQIWGGENFEISYKIWQCGGKLLFVPCSRVGHIYRLEGWQGNPPPIYVGSSPTLKNYVRVVEVWWDEYKDYFYASRPESQALPYGDISELKKFREDHNCKSFKWFMEEIAYDITSHYPLPPKNVDWGEIRGFETAYCIDSMGKTNGGFVELGPCHRMGGNQLFRINEANQLMQYDQCLTKGADGSKVMITHCNLNEFKEWQYFKNLHRFTHIPSGKCLDRSEVLHQVFISNCDSSKTTQKWEMNNIHSV [GALNT7] | 0.0877 | 0.865 | 53.7 | 53.8 | -0.135 | -0.206
